Reference: the supplement of paper PMC10065799, “High-throughput profiling of sequence recognition by tyrosine kinases and SH2 domains using bacterial peptide display” (eLife, 2023)

The sequences below were run against EPHB2 (UniProt P29323) (assay: phosphorylation enrichment, bacterial display (enrichment ratio); higher = better substrate or ligand; peptides without Tyr show the background).
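Further: 11-residue human phosphosite peptides and single-mutation variants displayed on the E. coli surface, counted by deep sequencing, each peptide's frequency after selection divided by its frequency in the unselected input library; frequency after pTyr selection over input frequency; kinase dosed for 20-30% of maximal phosphorylation in three min.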

Chain of EPHB2 (P29323 whole entry, looked up): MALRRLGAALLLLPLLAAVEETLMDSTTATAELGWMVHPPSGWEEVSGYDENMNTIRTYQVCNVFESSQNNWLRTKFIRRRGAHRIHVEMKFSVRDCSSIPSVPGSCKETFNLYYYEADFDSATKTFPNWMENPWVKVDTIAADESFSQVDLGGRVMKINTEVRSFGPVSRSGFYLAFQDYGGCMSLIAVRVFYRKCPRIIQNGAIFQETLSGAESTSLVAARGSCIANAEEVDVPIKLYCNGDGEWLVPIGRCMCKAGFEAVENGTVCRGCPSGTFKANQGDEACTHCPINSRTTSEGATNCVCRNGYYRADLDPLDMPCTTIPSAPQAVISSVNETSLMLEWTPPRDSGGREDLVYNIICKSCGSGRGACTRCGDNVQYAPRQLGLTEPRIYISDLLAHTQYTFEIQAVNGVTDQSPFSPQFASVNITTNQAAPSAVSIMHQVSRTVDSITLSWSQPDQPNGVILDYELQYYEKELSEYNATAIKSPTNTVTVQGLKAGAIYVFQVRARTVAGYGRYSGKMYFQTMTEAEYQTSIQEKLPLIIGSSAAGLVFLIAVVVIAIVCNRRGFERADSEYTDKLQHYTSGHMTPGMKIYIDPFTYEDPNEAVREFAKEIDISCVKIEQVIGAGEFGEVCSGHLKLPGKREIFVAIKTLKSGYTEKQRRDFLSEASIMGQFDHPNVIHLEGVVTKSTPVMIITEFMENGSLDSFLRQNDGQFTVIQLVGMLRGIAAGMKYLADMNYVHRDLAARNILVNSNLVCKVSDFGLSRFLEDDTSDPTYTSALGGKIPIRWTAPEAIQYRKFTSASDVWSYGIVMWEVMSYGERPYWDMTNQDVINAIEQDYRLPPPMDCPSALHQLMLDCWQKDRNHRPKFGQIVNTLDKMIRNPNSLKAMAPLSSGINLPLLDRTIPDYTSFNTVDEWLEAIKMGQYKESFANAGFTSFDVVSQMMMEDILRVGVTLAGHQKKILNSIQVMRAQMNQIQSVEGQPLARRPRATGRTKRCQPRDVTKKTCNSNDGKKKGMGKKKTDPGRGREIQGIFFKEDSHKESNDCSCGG

| Sequence | phosphorylation enrichment |
| --- | --- |
| VIKDKYPKVRY [APTX_Y209_A212V] | 0.437 |
| CPPEVYAIMRG [NTRK1_Y757] | 0.564 |
| GLRQSYFVEAQ [APCS_Y142_G141S] | 0.491 |
| YPKARYHWLVL [APTX_Y214] | 0.552 |
| LVFIKYLPEWT [PSEN1_Y240] | 0.734 |
| PESIMYPKFTT [NTRK3_Y744_R745P] | 0.586 |
| DASENYFVTDS [TMEM240_Y77] | 0.886 |
| VVLEDYLDIKH [CLCNKB_Y138_N143H] | 0.66 |
| SLTGAYTSGIP [POM121C_Y378] | 0.393 |
| LKRCQYVTKKV [ALDOA_Y204_E207K] | 0.506 |
| LEQRPYRRESE [KCNJ12_Y427] | 0.643 |
| AGEGTYALDSE [PES1_Y265] | 0.511 |
| QITQVYGFFDE [PPP2CA_Y127_YF] | 0.97 |
| KRIKLYNQEND [RPGRIP1L_Y448] | 0.387 |
| LLPNAYIYVVQ [L1CAM_Y418_A415P] | 1.32 |
| DRVALYVAREG [AACS_Y117_I118V] | 0.763 |
| FDDIAYIRKTL [PIK3CA_Y1021] | 0.481 |
| NNVEQYQAMVT [TPR_Y965_S960N] | 0.634 |
| PSQRPYVFFFS [PTEN_Y174_R173P_YF] | 0.559 |
| CTAIHYNYMCN [TP53_Y234_T231A] | 0.506 |
| QLPATCMNLGP [MST1R_Y1360_Y1360C] | 0.683 |
| EVNQDYGLDPK [FH_Y110] | 0.546 |
| AIFRRYSKFFD [SH3PXD2B_Y45_YF] | 0.565 |
| WAKPEYTGGFK | 0.468 |
| EYITRYIASLK [PSMA7_Y110] | 0.416 |
| EKGSNYCLCRT [ASIC2_Y357_D354G] | 0.45 |
| RLLVVYPWPQR [HBG2_Y36_T39P] | 0.606 |
| AAESTYDKILK [GDNF_Y156_T154S] | 0.508 |
| RRGMPYGGRGD [TGM1_Y312] | 0.881 |

Each sequence was assayed against EPHB1 (UniProt P54762) in the same assay as above.
Chain of EPHB1 (P54762 whole entry, looked up): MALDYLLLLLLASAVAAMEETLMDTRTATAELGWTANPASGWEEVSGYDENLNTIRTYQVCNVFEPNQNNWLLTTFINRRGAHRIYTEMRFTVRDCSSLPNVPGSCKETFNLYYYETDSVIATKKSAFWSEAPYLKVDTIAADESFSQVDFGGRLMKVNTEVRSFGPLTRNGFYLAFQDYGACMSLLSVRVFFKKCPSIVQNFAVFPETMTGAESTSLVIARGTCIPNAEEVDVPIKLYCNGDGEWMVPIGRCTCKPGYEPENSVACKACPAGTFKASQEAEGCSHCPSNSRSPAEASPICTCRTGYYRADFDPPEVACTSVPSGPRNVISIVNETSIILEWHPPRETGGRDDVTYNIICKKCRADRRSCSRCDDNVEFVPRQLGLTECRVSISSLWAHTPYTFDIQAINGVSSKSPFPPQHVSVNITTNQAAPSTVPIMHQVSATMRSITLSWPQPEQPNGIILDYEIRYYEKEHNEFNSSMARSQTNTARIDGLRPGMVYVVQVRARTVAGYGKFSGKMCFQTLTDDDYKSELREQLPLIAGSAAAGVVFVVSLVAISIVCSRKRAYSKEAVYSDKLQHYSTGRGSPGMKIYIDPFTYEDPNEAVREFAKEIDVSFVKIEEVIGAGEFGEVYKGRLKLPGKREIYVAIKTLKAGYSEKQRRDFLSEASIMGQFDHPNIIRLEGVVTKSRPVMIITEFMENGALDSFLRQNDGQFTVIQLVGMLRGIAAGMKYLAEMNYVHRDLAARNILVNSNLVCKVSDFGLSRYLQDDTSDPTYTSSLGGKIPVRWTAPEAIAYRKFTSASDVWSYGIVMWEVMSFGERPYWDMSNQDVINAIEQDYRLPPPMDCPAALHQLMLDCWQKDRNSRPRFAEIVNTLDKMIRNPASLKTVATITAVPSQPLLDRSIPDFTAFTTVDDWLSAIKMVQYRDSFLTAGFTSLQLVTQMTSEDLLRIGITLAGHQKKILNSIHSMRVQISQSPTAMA

| Sequence | phosphorylation enrichment |
| --- | --- |
| VIKDKYPKVRY [APTX_Y209_A212V] | 0.414 |
| CPPEVYAIMRG [NTRK1_Y757] | 0.976 |
| GLRQSYFVEAQ [APCS_Y142_G141S] | 0.532 |
| YPKARYHWLVL [APTX_Y214] | 0.507 |
| LVFIKYLPEWT [PSEN1_Y240] | 0.898 |
| PESIMYPKFTT [NTRK3_Y744_R745P] | 0.513 |
| DASENYFVTDS [TMEM240_Y77] | 1.44 |
| VVLEDYLDIKH [CLCNKB_Y138_N143H] | 0.782 |
| SLTGAYTSGIP [POM121C_Y378] | 0.299 |
| LKRCQYVTKKV [ALDOA_Y204_E207K] | 0.432 |
| LEQRPYRRESE [KCNJ12_Y427] | 0.591 |
| AGEGTYALDSE [PES1_Y265] | 0.576 |
| QITQVYGFFDE [PPP2CA_Y127_YF] | 1.28 |
| KRIKLYNQEND [RPGRIP1L_Y448] | 0.306 |
| LLPNAYIYVVQ [L1CAM_Y418_A415P] | 1.71 |
| DRVALYVAREG [AACS_Y117_I118V] | 0.621 |
| FDDIAYIRKTL [PIK3CA_Y1021] | 0.469 |
| NNVEQYQAMVT [TPR_Y965_S960N] | 0.599 |
| PSQRPYVFFFS [PTEN_Y174_R173P_YF] | 0.726 |
| CTAIHYNYMCN [TP53_Y234_T231A] | 0.628 |
| QLPATCMNLGP [MST1R_Y1360_Y1360C] | 0.668 |
| EVNQDYGLDPK [FH_Y110] | 0.631 |
| AIFRRYSKFFD [SH3PXD2B_Y45_YF] | 0.526 |
| WAKPEYTGGFK | 0.438 |
| EYITRYIASLK [PSMA7_Y110] | 0.498 |
| EKGSNYCLCRT [ASIC2_Y357_D354G] | 0.47 |
| RLLVVYPWPQR [HBG2_Y36_T39P] | 0.443 |
| AAESTYDKILK [GDNF_Y156_T154S] | 0.463 |
| RRGMPYGGRGD [TGM1_Y312] | 0.839 |

These sequences were tested against Hck (UniProt P08631) in the same assay as above.
Chain of Hck (P08631 whole entry, looked up): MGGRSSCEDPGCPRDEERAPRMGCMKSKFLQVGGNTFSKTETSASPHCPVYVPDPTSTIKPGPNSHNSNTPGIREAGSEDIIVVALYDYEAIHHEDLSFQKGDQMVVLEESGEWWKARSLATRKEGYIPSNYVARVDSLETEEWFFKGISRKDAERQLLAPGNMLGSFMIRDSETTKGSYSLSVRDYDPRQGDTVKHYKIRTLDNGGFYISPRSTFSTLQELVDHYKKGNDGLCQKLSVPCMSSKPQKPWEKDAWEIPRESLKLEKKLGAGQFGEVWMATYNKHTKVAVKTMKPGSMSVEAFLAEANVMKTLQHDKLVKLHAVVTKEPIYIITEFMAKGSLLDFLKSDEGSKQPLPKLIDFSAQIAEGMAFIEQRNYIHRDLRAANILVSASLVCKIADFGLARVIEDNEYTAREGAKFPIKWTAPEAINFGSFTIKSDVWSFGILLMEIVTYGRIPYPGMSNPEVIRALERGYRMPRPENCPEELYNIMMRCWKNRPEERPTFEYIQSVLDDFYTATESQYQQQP

| Sequence | phosphorylation enrichment |
| --- | --- |
| VIKDKYPKVRY [APTX_Y209_A212V] | 0.466 |
| CPPEVYAIMRG [NTRK1_Y757] | 2 |
| GLRQSYFVEAQ [APCS_Y142_G141S] | 0.505 |
| YPKARYHWLVL [APTX_Y214] | 0.493 |
| LVFIKYLPEWT [PSEN1_Y240] | 0.555 |
| PESIMYPKFTT [NTRK3_Y744_R745P] | 0.739 |
| DASENYFVTDS [TMEM240_Y77] | 0.659 |
| VVLEDYLDIKH [CLCNKB_Y138_N143H] | 0.534 |
| SLTGAYTSGIP [POM121C_Y378] | 0.357 |
| LKRCQYVTKKV [ALDOA_Y204_E207K] | 0.371 |
| LEQRPYRRESE [KCNJ12_Y427] | 0.52 |
| AGEGTYALDSE [PES1_Y265] | 0.528 |
| QITQVYGFFDE [PPP2CA_Y127_YF] | 6.92 |
| KRIKLYNQEND [RPGRIP1L_Y448] | 0.379 |
| LLPNAYIYVVQ [L1CAM_Y418_A415P] | 0.908 |
| DRVALYVAREG [AACS_Y117_I118V] | 0.68 |
| FDDIAYIRKTL [PIK3CA_Y1021] | 0.469 |
| NNVEQYQAMVT [TPR_Y965_S960N] | 0.551 |
| PSQRPYVFFFS [PTEN_Y174_R173P_YF] | 0.439 |
| CTAIHYNYMCN [TP53_Y234_T231A] | 0.429 |
| QLPATCMNLGP [MST1R_Y1360_Y1360C] | 0.554 |
| EVNQDYGLDPK [FH_Y110] | 0.596 |
| AIFRRYSKFFD [SH3PXD2B_Y45_YF] | 0.54 |
| WAKPEYTGGFK | 0.364 |
| EYITRYIASLK [PSMA7_Y110] | 0.51 |
| EKGSNYCLCRT [ASIC2_Y357_D354G] | 0.349 |
| RLLVVYPWPQR [HBG2_Y36_T39P] | 0.518 |
| AAESTYDKILK [GDNF_Y156_T154S] | 1.75 |
| RRGMPYGGRGD [TGM1_Y312] | 0.739 |

Each sequence was assayed on c-Abl (mouse) in the same assay as above.

| Sequence | phosphorylation enrichment |
| --- | --- |
| VIKDKYPKVRY [APTX_Y209_A212V] | 0.577 |
| CPPEVYAIMRG [NTRK1_Y757] | 0.695 |
| GLRQSYFVEAQ [APCS_Y142_G141S] | 0.48 |
| YPKARYHWLVL [APTX_Y214] | 0.707 |
| LVFIKYLPEWT [PSEN1_Y240] | 1.11 |
| PESIMYPKFTT [NTRK3_Y744_R745P] | 0.595 |
| DASENYFVTDS [TMEM240_Y77] | 0.86 |
| VVLEDYLDIKH [CLCNKB_Y138_N143H] | 0.716 |
| SLTGAYTSGIP [POM121C_Y378] | 0.52 |
| LKRCQYVTKKV [ALDOA_Y204_E207K] | 0.605 |
| LEQRPYRRESE [KCNJ12_Y427] | 0.519 |
| AGEGTYALDSE [PES1_Y265] | 0.816 |
| QITQVYGFFDE [PPP2CA_Y127_YF] | 1.06 |
| KRIKLYNQEND [RPGRIP1L_Y448] | 0.612 |
| LLPNAYIYVVQ [L1CAM_Y418_A415P] | 1.07 |
| DRVALYVAREG [AACS_Y117_I118V] | 0.589 |
| FDDIAYIRKTL [PIK3CA_Y1021] | 0.62 |
| NNVEQYQAMVT [TPR_Y965_S960N] | 0.683 |
| PSQRPYVFFFS [PTEN_Y174_R173P_YF] | 1.25 |
| CTAIHYNYMCN [TP53_Y234_T231A] | 0.48 |
| QLPATCMNLGP [MST1R_Y1360_Y1360C] | 1.06 |
| EVNQDYGLDPK [FH_Y110] | 0.765 |
| AIFRRYSKFFD [SH3PXD2B_Y45_YF] | 0.773 |
| WAKPEYTGGFK | 0.743 |
| EYITRYIASLK [PSMA7_Y110] | 0.569 |
| EKGSNYCLCRT [ASIC2_Y357_D354G] | 0.56 |
| RLLVVYPWPQR [HBG2_Y36_T39P] | 0.494 |
| AAESTYDKILK [GDNF_Y156_T154S] | 0.563 |
| RRGMPYGGRGD [TGM1_Y312] | 0.75 |
